In patent US5773001 (American Cyanamid Company, dated 1998):
Where two headings read alike, the source gives them in different places. Blank lines part the entries; values can stand above or below the binder they belong to.

Assays:
CD33 antigen (human) [1] = target: CD33 antigen (human) (UniProt P20138); assay: competition with 125I-labelled native antibody on HEL 92.1.7 cells; IC50 (reference) / IC50 (sample)
CD33 antigen (human) [2] = target: CD33 antigen (human) (UniProt P20138)
CD33 antigen (human) [3] = target: CD33 antigen (human) (UniProt P20138); remark: listed apart in the source
CD33 antigen (human) [4] = target: CD33 antigen (human) (UniProt P20138); remark: listed apart in the source
CD33 antigen (human) [5] = target: CD33 antigen (human) (UniProt P20138); remark: listed apart in the source
CD33 antigen (human) [6] = target: CD33 antigen (human) (UniProt P20138); remark: listed apart in the source
CD33 antigen (human) [7] = target: CD33 antigen (human) (UniProt P20138); remark: listed apart in the source
CD33 antigen (human) [8] = target: CD33 antigen (human) (UniProt P20138); remark: listed apart in the source
CD33 antigen (human) [9] = target: CD33 antigen (human) (UniProt P20138); remark: listed apart in the source
CD33 antigen (human) [10] = target: CD33 antigen (human) (UniProt P20138); remark: listed apart in the source
[11] = target: polyepithelial mucin (PEM) antigen on cells (human) (UniProt P15941)
Sequence of polyepithelial mucin (PEM) antigen on cells (human) (P15941 24-1255): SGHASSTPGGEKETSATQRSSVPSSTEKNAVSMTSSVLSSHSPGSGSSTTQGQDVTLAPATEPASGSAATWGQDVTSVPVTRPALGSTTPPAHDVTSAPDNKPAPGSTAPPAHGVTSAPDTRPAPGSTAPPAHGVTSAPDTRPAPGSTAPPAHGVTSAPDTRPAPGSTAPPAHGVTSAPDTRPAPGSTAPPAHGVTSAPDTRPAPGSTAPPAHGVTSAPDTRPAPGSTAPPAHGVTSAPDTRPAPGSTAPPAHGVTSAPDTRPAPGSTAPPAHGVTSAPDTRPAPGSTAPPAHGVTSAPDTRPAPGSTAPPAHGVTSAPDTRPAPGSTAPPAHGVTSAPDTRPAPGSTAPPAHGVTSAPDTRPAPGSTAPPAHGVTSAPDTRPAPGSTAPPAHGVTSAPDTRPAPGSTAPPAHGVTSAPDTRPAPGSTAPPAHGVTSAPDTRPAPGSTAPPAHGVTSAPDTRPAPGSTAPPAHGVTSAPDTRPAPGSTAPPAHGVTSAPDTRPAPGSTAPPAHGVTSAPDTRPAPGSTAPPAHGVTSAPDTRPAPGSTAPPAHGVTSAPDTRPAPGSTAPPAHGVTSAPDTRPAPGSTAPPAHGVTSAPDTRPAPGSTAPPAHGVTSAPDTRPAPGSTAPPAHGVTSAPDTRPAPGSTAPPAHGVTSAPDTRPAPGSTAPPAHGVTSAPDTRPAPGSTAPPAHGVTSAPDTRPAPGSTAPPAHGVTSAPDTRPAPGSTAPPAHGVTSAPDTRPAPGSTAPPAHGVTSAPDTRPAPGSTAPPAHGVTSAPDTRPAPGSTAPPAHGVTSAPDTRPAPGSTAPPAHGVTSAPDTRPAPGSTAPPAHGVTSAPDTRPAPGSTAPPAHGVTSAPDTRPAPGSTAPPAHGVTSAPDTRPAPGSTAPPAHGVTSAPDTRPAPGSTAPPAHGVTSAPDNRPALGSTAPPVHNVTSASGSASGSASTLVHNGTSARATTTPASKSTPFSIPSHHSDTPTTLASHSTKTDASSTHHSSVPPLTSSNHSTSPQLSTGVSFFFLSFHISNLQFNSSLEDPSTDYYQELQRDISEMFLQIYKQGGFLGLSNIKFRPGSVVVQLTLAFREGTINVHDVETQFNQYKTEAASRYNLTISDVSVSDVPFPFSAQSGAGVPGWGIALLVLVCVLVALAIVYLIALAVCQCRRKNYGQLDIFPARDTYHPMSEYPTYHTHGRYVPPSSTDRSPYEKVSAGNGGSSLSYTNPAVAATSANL

[12] = target: polyepithelial mucin (PEM) antigen on cells (human) (UniProt P15941); assay: competition with 125I-labelled native antibody on A2780DDP cells; IC50 (reference) / IC50 (sample)

Rel. Affinity (CD33 antigen (human) [1]): 0.99
Ex vivo inhibition of colony formation (CD33 antigen (human) [2]): 63 % inhibition
In vitro IC50 (3H-thymidine incorporation) (CD33 antigen (human) [2]): 4.8 ng/mL
B1: Conjugate of 4-formylbenzoic acid (2) condensed with Calicheamicin N-acetyl gamma dimethyl hydrazide and h-P67.6 (antibody, V domains shown)
VH: EVQLVQSGAEVKKPGSSVKVSCKASGYTITDSNIHWVRQAPGQSLEWIGYIYPYNGGTDYNQKFKNRATLTVDNPTNTAYMELSSLRSEDTDFYYCVNGNPWLAYWGQGTLVTVSS
VL: DIQLTQSPSTLSASVGDRVTITCRASESLDNYGIRFLTWFQQKPGKAPKLLMYAASNQGSGVPSRFSGSGSGTEFTLTISSLQPDDFATYYCQQTKEVPWSFGQGTKVEVKR
modifications: drug-linker amide on lysine side chains, sites not stated; drug-linker amide on lysine side chains, sites not stated

Rel. Affinity (CD33 antigen (human) [1]): 0.65
Ex vivo inhibition of colony formation (CD33 antigen (human) [3]): 95 % inhibition
In vitro IC50 (3H-thymidine incorporation) (CD33 antigen (human) [3]): 0.23 ng/mL
B2: Conjugate of 4-formylphenoxyacetic acid (1) condensed with Calicheamicin N-acetyl gamma dimethyl hydrazide and h-P67.6 (antibody, V domains shown)
VH: EVQLVQSGAEVKKPGSSVKVSCKASGYTITDSNIHWVRQAPGQSLEWIGYIYPYNGGTDYNQKFKNRATLTVDNPTNTAYMELSSLRSEDTDFYYCVNGNPWLAYWGQGTLVTVSS
VL: DIQLTQSPSTLSASVGDRVTITCRASESLDNYGIRFLTWFQQKPGKAPKLLMYAASNQGSGVPSRFSGSGSGTEFTLTISSLQPDDFATYYCQQTKEVPWSFGQGTKVEVKR
modifications: drug-linker amide on lysine side chains, sites not stated; drug-linker amide on lysine side chains, sites not stated

Rel. Affinity (CD33 antigen (human) [1]): 0.75
Ex vivo inhibition of colony formation (CD33 antigen (human) [4]): 96 % inhibition
In vitro IC50 (3H-thymidine incorporation) (CD33 antigen (human) [4]): 0.098 ng/mL
B3: Conjugate of 4-(4-acetylphenoxy)butanoic acid (7) condensed with Calicheamicin N-acetyl gamma dimethyl hydrazide and h-P67.6 (antibody, V domains shown)
VH: EVQLVQSGAEVKKPGSSVKVSCKASGYTITDSNIHWVRQAPGQSLEWIGYIYPYNGGTDYNQKFKNRATLTVDNPTNTAYMELSSLRSEDTDFYYCVNGNPWLAYWGQGTLVTVSS
VL: DIQLTQSPSTLSASVGDRVTITCRASESLDNYGIRFLTWFQQKPGKAPKLLMYAASNQGSGVPSRFSGSGSGTEFTLTISSLQPDDFATYYCQQTKEVPWSFGQGTKVEVKR
modifications: drug-linker amide on lysine side chains, sites not stated; drug-linker amide on lysine side chains, sites not stated

Ex vivo inhibition of colony formation (CD33 antigen (human) [5]): 98 % inhibition
In vitro IC50 (3H-thymidine incorporation) (CD33 antigen (human) [5]): 0.52 ng/mL
Rel. Affinity (CD33 antigen (human) [1]): 0.56
B4: Conjugate of 4-(4-formylphenoxy)butanoic acid (9) condensed with Calicheamicin N-acetyl gamma dimethyl hydrazide and h-P67.6 (antibody, V domains shown)
VH: EVQLVQSGAEVKKPGSSVKVSCKASGYTITDSNIHWVRQAPGQSLEWIGYIYPYNGGTDYNQKFKNRATLTVDNPTNTAYMELSSLRSEDTDFYYCVNGNPWLAYWGQGTLVTVSS
VL: DIQLTQSPSTLSASVGDRVTITCRASESLDNYGIRFLTWFQQKPGKAPKLLMYAASNQGSGVPSRFSGSGSGTEFTLTISSLQPDDFATYYCQQTKEVPWSFGQGTKVEVKR
modifications: drug-linker amide on lysine side chains, sites not stated; drug-linker amide on lysine side chains, sites not stated

Ex vivo inhibition of colony formation (CD33 antigen (human) [7]): 99 % inhibition
In vitro IC50 (3H-thymidine incorporation) (CD33 antigen (human) [7]): 0.012 ng/mL
Rel. Affinity (CD33 antigen (human) [1]): 0.5
B6: Conjugate of 4-acetylbenzenebutanoic acid (19) condensed with Calicheamicin N-acetyl gamma dimethyl hydrazide and h-P67.6 (antibody, V domains shown)
VH: EVQLVQSGAEVKKPGSSVKVSCKASGYTITDSNIHWVRQAPGQSLEWIGYIYPYNGGTDYNQKFKNRATLTVDNPTNTAYMELSSLRSEDTDFYYCVNGNPWLAYWGQGTLVTVSS
VL: DIQLTQSPSTLSASVGDRVTITCRASESLDNYGIRFLTWFQQKPGKAPKLLMYAASNQGSGVPSRFSGSGSGTEFTLTISSLQPDDFATYYCQQTKEVPWSFGQGTKVEVKR
modifications: drug-linker amide on lysine side chains, sites not stated; drug-linker amide on lysine side chains, sites not stated

Second part, the binder before the results:

B5: Conjugate of 4-(4-acetylphenoxy)butanoic acid (7) condensed with calicheamicin gamma dimethyl hydrazide and h-P67.6 (antibody, V domains shown)
VH: EVQLVQSGAEVKKPGSSVKVSCKASGYTITDSNIHWVRQAPGQSLEWIGYIYPYNGGTDYNQKFKNRATLTVDNPTNTAYMELSSLRSEDTDFYYCVNGNPWLAYWGQGTLVTVSS
VL: DIQLTQSPSTLSASVGDRVTITCRASESLDNYGIRFLTWFQQKPGKAPKLLMYAASNQGSGVPSRFSGSGSGTEFTLTISSLQPDDFATYYCQQTKEVPWSFGQGTKVEVKR
modifications: drug-linker amide on lysine side chains, sites not stated; drug-linker amide on lysine side chains, sites not stated
Rel. Affinity (CD33 antigen (human) [1]): 0.78
In vitro IC50 (3H-thymidine incorporation) (CD33 antigen (human) [6]): 0.001 ng/mL

B7: Conjugate of 3-(2-oxoethoxy)benzoic acid (6) condensed with Calicheamicin N-acetyl gamma dimethyl hydrazide and h-P67.6 (antibody, V domains shown)
VH: EVQLVQSGAEVKKPGSSVKVSCKASGYTITDSNIHWVRQAPGQSLEWIGYIYPYNGGTDYNQKFKNRATLTVDNPTNTAYMELSSLRSEDTDFYYCVNGNPWLAYWGQGTLVTVSS
VL: DIQLTQSPSTLSASVGDRVTITCRASESLDNYGIRFLTWFQQKPGKAPKLLMYAASNQGSGVPSRFSGSGSGTEFTLTISSLQPDDFATYYCQQTKEVPWSFGQGTKVEVKR
modifications: drug-linker amide on lysine side chains, sites not stated; drug-linker amide on lysine side chains, sites not stated
Rel. Affinity (CD33 antigen (human) [1]): 1.19
In vitro IC50 (3H-thymidine incorporation) (CD33 antigen (human) [8]): 0.69 ng/mL

B8: Conjugate of 4-(2-oxoethoxy)benzenepropanoic acid (5) condensed with Calicheamicin N-acetyl gamma dimethyl hydrazide and h-P67.6 (antibody, V domains shown)
VH: EVQLVQSGAEVKKPGSSVKVSCKASGYTITDSNIHWVRQAPGQSLEWIGYIYPYNGGTDYNQKFKNRATLTVDNPTNTAYMELSSLRSEDTDFYYCVNGNPWLAYWGQGTLVTVSS
VL: DIQLTQSPSTLSASVGDRVTITCRASESLDNYGIRFLTWFQQKPGKAPKLLMYAASNQGSGVPSRFSGSGSGTEFTLTISSLQPDDFATYYCQQTKEVPWSFGQGTKVEVKR
modifications: drug-linker amide on lysine side chains, sites not stated; drug-linker amide on lysine side chains, sites not stated
In vitro IC50 (3H-thymidine incorporation) (CD33 antigen (human) [9]): 2.22 ng/mL
Rel. Affinity (CD33 antigen (human) [1]): 1.09

B9: Conjugate of 4-(2-acetyl-1-naphthalenyl)oxy! butanoic acid (20) condensed with Calicheamicin N-acetyl gamma dimethyl hydrazide and h-P67.6 (antibody, V domains shown)
VH: EVQLVQSGAEVKKPGSSVKVSCKASGYTITDSNIHWVRQAPGQSLEWIGYIYPYNGGTDYNQKFKNRATLTVDNPTNTAYMELSSLRSEDTDFYYCVNGNPWLAYWGQGTLVTVSS
VL: DIQLTQSPSTLSASVGDRVTITCRASESLDNYGIRFLTWFQQKPGKAPKLLMYAASNQGSGVPSRFSGSGSGTEFTLTISSLQPDDFATYYCQQTKEVPWSFGQGTKVEVKR
modifications: drug-linker amide on lysine side chains, sites not stated; drug-linker amide on lysine side chains, sites not stated
Ex vivo inhibition of colony formation (CD33 antigen (human) [10]): 76 % inhibition
In vitro IC50 (3H-thymidine incorporation) (CD33 antigen (human) [10]): 0.061 ng/mL
Rel. Affinity (CD33 antigen (human) [1]): 0.5

B10: Conjugate of 4-formyl-3-methoxyphenoxyacetic acid (3) condensed with Calicheamicin N-acetyl gamma dimethyl hydrazide and m-CT-M-01 (antibody, V domains shown)
VH: QIQLQQSGPELVKPGASVKISCKASGYTFTDYYINWMKQKPGQGLEWIGWIDPGSGNTKYNEKFKGKATLTVDTSSSTAYMQLSSLTSEDTAVYFCAREKTTYYYAMDYWGQGTSVTVSA
VL: DIVMTQAAPSVPVTPGESLSISCRSSKSLLHSNGDTFLYWFLQRPGQSPQLLIYRMSNLASGVPDRFSGSGSGTAFTLRVSRVEAEDVGVYYCMQHLEYPFTFGAGTKLELKR
modifications: drug-linker amide on lysine side chains, sites not stated; drug-linker amide on lysine side chains, sites not stated
In vitro IC50 (3H-thymidine incorporation) [11]: 5.6 ng/mL
Rel. Affinity [12]: 0.88
